Residue numbers refer to the chain shown, from its start.
Columns and labels:
[1] = molecular target: T1, DX2 complex (human, UniProt O75771;O43543 1-328;1-280); assay: EMSA; strong binding; EMSA: 20 mM Tris-HCl pH 7.5, 2 mM MgCl2, 2 mM ATP, 37 C, 20 nM DNA, glutaraldehyde fixation; stopped-flow: 25 mM Tris-HCl pH 7.5, 5 mM MgCl2, 50 mM KCl, 2 mM ATP, 0.5 mM EDTA, 10% glycerol, 37 C; BLI: 50 mM Tris-HCl pH 7.5, 2 mM ATP, 50 mM KCl, 5 mM MgCl2, 0.05% Tween 20, room temperature; settings: protein: recombinant; tags: His-tag; copies: 1;1; label: internal FITC; reversed fork of 4 strands with ssDNA overhang
T1 sequence 1: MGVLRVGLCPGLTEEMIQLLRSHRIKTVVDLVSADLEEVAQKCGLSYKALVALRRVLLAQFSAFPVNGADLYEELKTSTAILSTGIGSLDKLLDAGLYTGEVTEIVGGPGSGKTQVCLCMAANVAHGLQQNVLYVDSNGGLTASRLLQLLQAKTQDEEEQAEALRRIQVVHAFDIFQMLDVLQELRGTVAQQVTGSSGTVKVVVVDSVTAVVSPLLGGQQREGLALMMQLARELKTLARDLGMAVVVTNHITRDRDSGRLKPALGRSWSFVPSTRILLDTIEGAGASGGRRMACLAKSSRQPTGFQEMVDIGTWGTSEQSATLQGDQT
T1 sequence 2: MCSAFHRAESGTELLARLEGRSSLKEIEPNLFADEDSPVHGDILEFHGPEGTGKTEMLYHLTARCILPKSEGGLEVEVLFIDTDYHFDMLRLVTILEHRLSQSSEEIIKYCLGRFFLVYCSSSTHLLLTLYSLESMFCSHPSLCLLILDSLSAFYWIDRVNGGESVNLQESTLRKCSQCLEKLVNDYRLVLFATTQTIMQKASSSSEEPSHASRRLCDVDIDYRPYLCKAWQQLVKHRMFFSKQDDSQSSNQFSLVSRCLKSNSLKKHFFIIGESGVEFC

[2] = molecular target: T2, BCDX2 complex (human, UniProt O15315;O43502;O75771;O43543 1-384;1-376;1-328;1-280); assay: as above; settings: protein: recombinant; tags: Strep-tag and His-tag (XRCC2 N-terminal His); copies: 1;1;1;1; label: internal FITC; reversed fork of 4 strands with ssDNA overhang
T2 sequence 1: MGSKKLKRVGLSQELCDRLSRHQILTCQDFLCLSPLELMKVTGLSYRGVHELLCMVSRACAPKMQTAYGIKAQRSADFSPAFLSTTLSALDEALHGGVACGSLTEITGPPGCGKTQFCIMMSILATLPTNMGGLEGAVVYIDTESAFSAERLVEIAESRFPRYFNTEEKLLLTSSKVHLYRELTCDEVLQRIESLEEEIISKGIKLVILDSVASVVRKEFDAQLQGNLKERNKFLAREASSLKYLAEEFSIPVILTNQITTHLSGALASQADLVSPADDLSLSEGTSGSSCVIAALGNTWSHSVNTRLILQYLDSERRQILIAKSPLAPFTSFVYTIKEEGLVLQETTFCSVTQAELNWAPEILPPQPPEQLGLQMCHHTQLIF
T2 sequence 2: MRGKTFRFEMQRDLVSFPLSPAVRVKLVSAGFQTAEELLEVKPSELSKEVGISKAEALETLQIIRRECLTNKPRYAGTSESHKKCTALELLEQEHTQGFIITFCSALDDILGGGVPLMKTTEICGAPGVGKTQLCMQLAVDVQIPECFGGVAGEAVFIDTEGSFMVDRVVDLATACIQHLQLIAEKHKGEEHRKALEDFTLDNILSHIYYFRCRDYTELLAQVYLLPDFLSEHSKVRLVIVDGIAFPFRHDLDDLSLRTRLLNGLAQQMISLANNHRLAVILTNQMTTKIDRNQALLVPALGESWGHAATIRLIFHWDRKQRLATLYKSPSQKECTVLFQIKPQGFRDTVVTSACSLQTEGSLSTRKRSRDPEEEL
T2 sequence 3: T1 sequence 1
T2 sequence 4: T1 sequence 2

[3] = molecular target: T3, D(R266A)X2 (UniProt O75771;O43543 1-328;1-280, R266A); assay: EMSA; not significantly affected; EMSA: 20 mM Tris-HCl pH 7.5, 2 mM MgCl2, 2 mM ATP, 37 C, 20 nM DNA, glutaraldehyde fixation; stopped-flow: 25 mM Tris-HCl pH 7.5, 5 mM MgCl2, 50 mM KCl, 2 mM ATP, 0.5 mM EDTA, 10% glycerol, 37 C; BLI: 50 mM Tris-HCl pH 7.5, 2 mM ATP, 50 mM KCl, 5 mM MgCl2, 0.05% Tween 20, room temperature; settings: protein: recombinant; copies: 1;1; label: internal FITC; reversed fork of 4 strands with ssDNA overhang
T3 sequence 1: T1 sequence 1 with R266A
T3 sequence 2: T1 sequence 2

[4] = molecular target: T4, DX2(R159A) (UniProt O75771;O43543 1-328;1-280, R159A); assay: as above; settings: protein: recombinant; copies: 1;1; label: internal FITC; reversed fork of 4 strands with ssDNA overhang
T4 sequence 1: T1 sequence 1
T4 sequence 2: T1 sequence 2 with R159A

[5] = molecular target: T2, BCDX2 complex; assay: EMSA; stronger than miniBRCA2; EMSA: 20 mM Tris-HCl pH 7.5, 2 mM MgCl2, 2 mM ATP, 37 C, 20 nM DNA, glutaraldehyde fixation; stopped-flow: 25 mM Tris-HCl pH 7.5, 5 mM MgCl2, 50 mM KCl, 2 mM ATP, 0.5 mM EDTA, 10% glycerol, 37 C; BLI: 50 mM Tris-HCl pH 7.5, 2 mM ATP, 50 mM KCl, 5 mM MgCl2, 0.05% Tween 20, room temperature; settings: protein: recombinant; tags: Strep-tag and His-tag (XRCC2 N-terminal His); copies: 1;1;1;1; label: 5' FITC
[6] = molecular target: T2, BCDX2 complex; assay: EMSA; significant binding; EMSA: 20 mM Tris-HCl pH 7.5, 2 mM MgCl2, 2 mM ATP, 37 C, 20 nM DNA, glutaraldehyde fixation; stopped-flow: 25 mM Tris-HCl pH 7.5, 5 mM MgCl2, 50 mM KCl, 2 mM ATP, 0.5 mM EDTA, 10% glycerol, 37 C; BLI: 50 mM Tris-HCl pH 7.5, 2 mM ATP, 50 mM KCl, 5 mM MgCl2, 0.05% Tween 20, room temperature; settings: protein: recombinant; tags: Strep-tag and His-tag (XRCC2 N-terminal His); copies: 1;1;1;1; label: 5' FITC
[7] = molecular target: T1, DX2 complex; assay: EMSA; EMSA: 20 mM Tris-HCl pH 7.5, 2 mM MgCl2, 2 mM ATP, 37 C, 20 nM DNA, glutaraldehyde fixation; stopped-flow: 25 mM Tris-HCl pH 7.5, 5 mM MgCl2, 50 mM KCl, 2 mM ATP, 0.5 mM EDTA, 10% glycerol, 37 C; BLI: 50 mM Tris-HCl pH 7.5, 2 mM ATP, 50 mM KCl, 5 mM MgCl2, 0.05% Tween 20, room temperature; settings: protein: recombinant; tags: His-tag; copies: 1;1; label: 3' FITC
[8] = molecular target: T5, BC complex (human, UniProt O15315;O43502 1-384;1-376); assay: as above; settings: protein: recombinant; tags: Strep-tag; copies: 1;1; label: 3' FITC
T5 sequence 1: T2 sequence 1
T5 sequence 2: T2 sequence 2

[9] = molecular target: T2, BCDX2 complex; assay: EMSA; ATP, Mg2+; EMSA: 20 mM Tris-HCl pH 7.5, 2 mM MgCl2, 2 mM ATP, 37 C, 20 nM DNA, glutaraldehyde fixation; stopped-flow: 25 mM Tris-HCl pH 7.5, 5 mM MgCl2, 50 mM KCl, 2 mM ATP, 0.5 mM EDTA, 10% glycerol, 37 C; BLI: 50 mM Tris-HCl pH 7.5, 2 mM ATP, 50 mM KCl, 5 mM MgCl2, 0.05% Tween 20, room temperature; settings: protein: recombinant; tags: Strep-tag and His-tag (XRCC2 N-terminal His); copies: 1;1;1;1; label: 3' FITC
[10] = molecular target: T2, BCDX2 complex; assay: EMSA; stronger than ssDNA; EMSA: 20 mM Tris-HCl pH 7.5, 2 mM MgCl2, 2 mM ATP, 37 C, 20 nM DNA, glutaraldehyde fixation; stopped-flow: 25 mM Tris-HCl pH 7.5, 5 mM MgCl2, 50 mM KCl, 2 mM ATP, 0.5 mM EDTA, 10% glycerol, 37 C; BLI: 50 mM Tris-HCl pH 7.5, 2 mM ATP, 50 mM KCl, 5 mM MgCl2, 0.05% Tween 20, room temperature; settings: protein: recombinant, tags: Strep-tag and His-tag (XRCC2 N-terminal His), copies: 1;1;1;1

B1: RVF1 (mixed)
DNA 1: TGCCGAATTCTACCAGTGCCAGTGATGGACATCTTTGCCCACGTTGACCC
DNA 2: TGGGTCAACGTGGGCAAAGATGTCCTAGCAATGTAATCGTCTATGACGTT
DNA 3: TCGGATCCTCTAGACAGCTCCATGATCACTGGCACTGGTAGAATTCGGC
DNA 4: CAACGTCATAGACGATTACATTGCT
modifications: internal FITC at Z after nt 20 of strand 3
B1: binds [1]; binds [2]; binds [3]. B1: binds [4].

GTACAAAGCTCTGGCATGATACTATGCGGC (ssDNA) [ssDNA 30mer]: binds [5].

AGAAGAGAGCAGAGG (ssDNA) [ssDNA 15mer]: binds [6].

CTAAGTTCGTCAGGATTCCAGCATTCTAACAGTCATAGCG (ssDNA) [ssDNA 40mer]: binds [5].

AGCTACCATGCCTGCACGAATTAAGCAATTCGTAATCATGGTCATAGCT (ssDNA) [ssDNA 49mer]: no binding [7]; no binding [8]; binds [9].

B2: 3' flap (mixed)
DNA 1: AGCTACCATGCCTGCACGAATTAAGCAATTCGTAATCATGGTCATAGCT
DNA 2: AGCTATGACCATGATTACGAATTGCTTGGAATCCTGACGAACTGTAG
DNA 3: AATTCGTGCAGGCATGGTAGCT
B2: binds ([10]; label: 5' FITC on strand 1, flap 1:2 1:3).

B3: Y-form (mixed)
DNA 1: B2 DNA 1
DNA 2: B2 DNA 2
B3: binds ([10]; label: 3' FITC on strand 1, fork 1:2).

— publication PMC11514458
